We go through 15 molecules from patent US20220056125A1 (CEPHALON, published 2022).

The target in this test is T1, human PAR-2 (human, UniProt P55085 26-397).
T1 sequence: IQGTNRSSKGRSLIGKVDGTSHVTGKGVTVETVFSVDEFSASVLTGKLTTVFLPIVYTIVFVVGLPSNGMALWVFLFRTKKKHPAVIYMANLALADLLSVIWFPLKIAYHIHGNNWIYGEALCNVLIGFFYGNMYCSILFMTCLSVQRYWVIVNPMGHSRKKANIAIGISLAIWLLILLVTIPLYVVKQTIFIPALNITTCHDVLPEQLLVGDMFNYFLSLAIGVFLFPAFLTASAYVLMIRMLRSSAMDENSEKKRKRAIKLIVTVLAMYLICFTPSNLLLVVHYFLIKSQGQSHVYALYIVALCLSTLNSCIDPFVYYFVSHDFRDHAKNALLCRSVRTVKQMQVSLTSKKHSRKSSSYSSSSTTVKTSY
As to the kind of experiment: cell-based or functional assay.

B1: P24E915 (antibody, human IgG4 S228P, kappa, V domains shown)
VH: QVQLVQSGAEVKKPGSSVKVSCKASGFSLSSYAISWVRQAPGQGLEWMGVIWGNGNTYYAQKFQGRVTITADESTSTAYMELSSLRSEDTAVYYCARWKGYKDYPFDYWGQGTLVTVSS
VL: EIVLTQSPATLSLSPGERATLSCKASQNVYKWLDWYQQKPGQAPRLLIYNAYSLATGIPARFSGSGSGRDFTLTISSLEPEDFAVYYCQQHNSGWTFGGGTKVEIKR
With B1, the “PAR-2 β-arrestin cell based assay IC50, 2 µM SLIGKV” value worked out at 1.16 nM.

B2: P24E917 (antibody, human IgG4 S228P, kappa, V domains shown)
VH: QVQLVQSGAEVKKPGSSVKVSCKASGFSLSSYAISWVRQAPGQGLEWMGVIWGNGNTYYAQKFQGRVTITADESTSTAYMELSSLRSEDTAVYYCARWKGYKDYPFDYWGQGTLVTVSS
VL: EIVLTQSPATLSLSPGERATLSCKASQNVYKWLDWYQQKPGQAPRLLIYNAYSLATGIPARFSGSGSGRDFTLTISSLEPEDFAVYYCQQHGSGWTFGGGTKVEIKR
Take B2: the “PAR-2 β-arrestin cell based assay IC50, 2 µM SLIGKV” value is 0.93 nM.

B3: P24E918 (antibody, human IgG4 S228P, kappa, V domains shown)
VH: QVQLVQSGAEVKKPGSSVKVSCKASGFSLSSYAISWVRQAPGQGLEWMGVIWGNGNTYYAQKFQGRVTITADESTSTAYMELSSLRSEDTAVYYCARWRGFKDYPFDYWGQGTLVTVSS
VL: EIVLTQSPATLSLSPGERATLSCRASQNIYKWLDWYQQKPGQAPRLLIYNAYSLATGIPARFSGSGSGRDFTLTISSLEPEDFAVYYCQQHNSGWTFGGGTKVEIKR
Consider B3, for which the “PAR-2 β-arrestin cell based assay IC50, 2 µM SLIGKV” value came out at 1.18 nM.

B4: P24E932 (antibody, human IgG4 S228P, kappa, V domains shown)
VH: QVQLVQSGAEVKKPGSSVKVSCKASGFSLSSYAISWVRQAPGQGLEWMGVIWGNGNVYYAQKFQGRVTITADESTSTAYMELSSLRSEDTAVYYCARWKGYKDYPFDYWGQGTLVTVSS
VL: EIVLTQSPATLSLSPGERATLSCRASQNIYKWLDWYQQKPGQAPRLLIYNAYSLATGIPARFSGSGSGRDFTLTISSLEPEDFAVYYCQQHNSGWTFGGGTKVEIKR
For B4, the “PAR-2 β-arrestin cell based assay IC50, 2 µM SLIGKV” value amounted to 1.4 nM.

B5: P24E924 (antibody, human IgG4 S228P, kappa, V domains shown)
VH: QVQLVQSGAEVKKPGSSVKVSCKASGFSLSSYAISWVRQAPGQGLEWMGVIWGNGNTYYAQKFQGRVTITADESTSTAYMELSSLRSEDTAVYYCARWRGWKDYPFDYWGQGTLVTVSS
VL: EIVLTQSPATLSLSPGERATLSCRASQNVYKWLDWYQQKPGQAPRLLIYNAYSRATGIPARFSGSGSGRDFTLTISSLEPEDFAVYYCQQHNSGWTFGGGTKVEIKR
In the case of B5, the “PAR-2 β-arrestin cell based assay IC50, 2 µM SLIGKV” value worked out at 0.79 nM.

B6: P24E922 (antibody, human IgG4 S228P, kappa, V domains shown)
VH: QVQLVQSGAEVKKPGSSVKVSCKASGFSLSSYAISWVRQAPGQGLEWMGVIWGNGNTYYAQKFQGRVTITADESTSTAYMELSSLRSEDTAVYYCARWRGWKDYPFDYWGQGTLVTVSS
VL: EIVLTQSPATLSLSPGERATLSCRASQNIYKWLDWYQQKPGQAPRLLIYNAYSLATGIPARFSGSGSGRDFTLTISSLEPEDFAVYYCQQHNSGWTFGGGTKVEIKR
In the case of B6, the “PAR-2 β-arrestin cell based assay IC50, 2 µM SLIGKV” value came to 1.01 nM.

B7: P24E930 (antibody, human IgG4 S228P, kappa, V domains shown)
VH: QVQLVQSGAEVKKPGSSVKVSCKASGFSLSSYAISWVRQAPGQGLEWMGVIWGNGNVYYAQKFQGRVTITADESTSTAYMELSSLRSEDTAVYYCARWKGYKDYPFDYWGQGTLVTVSS
VL: EIVLTQSPATLSLSPGERATLSCRASQNVYKWLDWYQQKPGQAPRLLIYNAYSRATGIPARFSGSGSGRDFTLTISSLEPEDFAVYYCQQHGSGWTFGGGTKVEIKR
Take B7: the “PAR-2 β-arrestin cell based assay IC50 (SLIGKV mark missing)” value was 1.7 nM and the “PAR-2 β-arrestin cell based assay IC50, 2 µM SLIGKV” value was determined as 1.4 nM.

B8: P24E916 (antibody, human IgG4 S228P, kappa, V domains shown)
VH: QVQLVQSGAEVKKPGSSVKVSCKASGFSLSSYAISWVRQAPGQGLEWMGVIWGNGNTYYAQKFQGRVTITADESTSTAYMELSSLRSEDTAVYYCARWKGYKDYPFDYWGQGTLVTVSS
VL: EIVLTQSPATLSLSPGERATLSCRASQNVYKWLDWYQQKPGQAPRLLIYNAYSRATGIPARFSGSGSGRDFTLTISSLEPEDFAVYYCQQHNSGWTFGGGTKVEIKR
Turning to B8, the “PAR-2 β-arrestin cell based assay IC50, 2 µM SLIGKV” value worked out at 1.1 nM.

B9: P24E931 (antibody, human IgG4 S228P, kappa, V domains shown)
VH: QVQLVQSGAEVKKPGSSVKVSCKASGFSLSSYAISWVRQAPGQGLEWMGVIWGNGNVYYAQKFQGRVTITADESTSTAYMELSSLRSEDTAVYYCARWKGYKDYPFDYWGQGTLVTVSS
VL: EIVLTQSPATLSLSPGERATLSCKASQNVYKWLDWYQQKPGQAPRLLIYNAYSLATGIPARFSGSGSGRDFTLTISSLEPEDFAVYYCQQHGSGWTFGGGTKVEIKR
Take B9: the “PAR-2 β-arrestin cell based assay IC50, 2 µM SLIGKV” value was determined as 2 nM.

B10: P24E919 (antibody, human IgG4 S228P, kappa, V domains shown)
VH: QVQLVQSGAEVKKPGSSVKVSCKASGFSLSSYAISWVRQAPGQGLEWMGVIWGNGNTYYAQKFQGRVTITADESTSTAYMELSSLRSEDTAVYYCARWRGFKDYPFDYWGQGTLVTVSS
VL: EIVLTQSPATLSLSPGERATLSCKASQNVYKWLDWYQQKPGQAPRLLIYNAYSLATGIPARFSGSGSGRDFTLTISSLEPEDFAVYYCQQHNSGWTFGGGTKVEIKR
Turning to B10, the “PAR-2 β-arrestin cell based assay IC50, 2 µM SLIGKV” value stood at 1.44 nM.

B11: P24E933 (antibody, human IgG4 S228P, kappa, V domains shown)
VH: QVQLVQSGAEVKKPGSSVKVSCKASGFSLSSYAISWVRQAPGQGLEWMGVIWGNGNTYYAQKFQGRVTITADESTSTAYMELSSLRSEDTAVYYCARWKGYKDYPFDYWGQGTLVTVSS
VL: EIVLTQSPATLSLSPGERATLSCRASQNVYKWLDWYQQKPGQAPRLLIYNAYSRATGIPARFSGSGSGRDFTLTISSLEPEDFAVYYCQQHGSGWTFGGGTKVEIKR
B11: the “PAR-2 β-arrestin cell based assay IC50, 2 µM SLIGKV” value was 1.4 nM.

B12: P24E920 (antibody, human IgG4 S228P, kappa, V domains shown)
VH: QVQLVQSGAEVKKPGSSVKVSCKASGFSLSSYAISWVRQAPGQGLEWMGVIWGNGNTYYAQKFQGRVTITADESTSTAYMELSSLRSEDTAVYYCARWRGFKDYPFDYWGQGTLVTVSS
VL: EIVLTQSPATLSLSPGERATLSCRASQNVYKWLDWYQQKPGQAPRLLIYNAYSRATGIPARFSGSGSGRDFTLTISSLEPEDFAVYYCQQHNSGWTFGGGTKVEIKR
B12: the “PAR-2 β-arrestin cell based assay IC50, 2 µM SLIGKV” value came to 1.32 nM.

B13: P24E921 (antibody, human IgG4 S228P, kappa, V domains shown)
VH: QVQLVQSGAEVKKPGSSVKVSCKASGFSLSSYAISWVRQAPGQGLEWMGVIWGNGNTYYAQKFQGRVTITADESTSTAYMELSSLRSEDTAVYYCARWRGFKDYPFDYWGQGTLVTVSS
VL: EIVLTQSPATLSLSPGERATLSCKASQNVYKWLDWYQQKPGQAPRLLIYNAYSLATGIPARFSGSGSGRDFTLTISSLEPEDFAVYYCQQHGSGWTFGGGTKVEIKR
Turning to B13, the “PAR-2 β-arrestin cell based assay IC50, 2 µM SLIGKV” value came to 1.9 nM.

B14: P24E923 (antibody, human IgG4 S228P, kappa, V domains shown)
VH: QVQLVQSGAEVKKPGSSVKVSCKASGFSLSSYAISWVRQAPGQGLEWMGVIWGNGNTYYAQKFQGRVTITADESTSTAYMELSSLRSEDTAVYYCARWRGWKDYPFDYWGQGTLVTVSS
VL: EIVLTQSPATLSLSPGERATLSCKASQNVYKWLDWYQQKPGQAPRLLIYNAYSLATGIPARFSGSGSGRDFTLTISSLEPEDFAVYYCQQHNSGWTFGGGTKVEIKR
Regarding B14, the “PAR-2 β-arrestin cell based assay IC50, 2 µM SLIGKV” value is 0.99 nM.

B15: P24E934 (antibody, human IgG4 S228P, kappa, V domains shown)
VH: QVQLVQSGAEVKKPGSSVKVSCKASGFSLSSYAISWVRQAPGQGLEWMGVIWGNGNVYYAQKFQGRVTITADESTSTAYMELSSLRSEDTAVYYCARWKGYKDHPFDYWGQGTLVTVSS
VL: EIVLTQSPATLSLSPGERATLSCRASQNVYKWLDWYQQKPGQAPRLLIYNAYSRATGIPARFSGSGSGRDFTLTISSLEPEDFAVYYCQQHHSGWTFGGGTKVEIKR
Take B15: the “PAR-2 β-arrestin cell based assay IC50, 2 µM SLIGKV” value was found to be 1.5 nM.
